The source of these data is PMC7314397 (Protein Science : A Publication of the Protein Society, 2020).

What all share (experiment): ITC
On the technique in general: Isothermal titration calorimetry measures the heat released or taken up as one component is titrated into another.

For assay [1], the target named is Strongylocentrotus purpuratus NCBD (nuclear coactivator binding domain of CREBBP/p300) (Strongylocentrotus purpuratus (purple sea urchin)).
The target of assay [2] is Petromyzon marinus NCBD (nuclear coactivator binding domain of CREBBP/p300) (Petromyzon marinus (sea lamprey)).
Assay [3] addresses Homo sapiens NCBD (nuclear coactivator binding domain) from CREBBP (Homo sapiens (human)) (UniProt Q92793).
The target of assay [4] is T1, Homo sapiens NCBD (nuclear coactivator binding domain) from CREBBP (Homo sapiens (human), UniProt Q92793 2061-2109).
T1 chain: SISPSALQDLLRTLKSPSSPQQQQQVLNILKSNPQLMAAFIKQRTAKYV

As for “Homo sapiens CID (CREBBP-binding domain) from NCOA3 (ACTR) (from UniProt Q9Y6Q9 1045-1086) (domain or fragment)”, the Kd (as a rule, the equilibrium constant for the complex coming apart) in assay [1] came to 13000 nM.
In the case of “Petromyzon marinus CID, from the first of the two NCOA proteins (domain or fragment)”, in assay [2], the Kd amounted to 200 nM. That is a sub-micromolar value.
On the same count and under the same terms, next, “Petromyzon marinus CID, from the second of the two NCOA proteins (domain or fragment)”: 200 nM.
On to “Strongylocentrotus purpuratus CID (CREBBP-binding domain of NCOA) (domain or fragment)”, for which the Kd in assay [3] was 4800 nM. Besides, in assay [1], the equilibrium dissociation constant (Kd) fell in the range of 7000 to 22000 nM and the stoichiometry N (commonly the number of molecules, sites or subunits per partner or assembly) was 1.7.
In the case of EGQSDERALLDQLHTLLSNTDATGLEEIDRALGIPELVNQGQ (domain or fragment, Homo sapiens (human)) [Homo sapiens CID (CREBBP-binding domain) from NCOA3 (ACTR)], the dissociation constant Kd in assay [4] stood at 400 nM.
